Reference: patent publication US20060018911A1

Assays:
[1] = target: purified IgM antibody (38C13); test: antibody microarray, printed S1C5, goat anti-mouse IgM HRP chemiluminescence
[2] = target: 38C13 IgM in 38C13 cell extract; test: antibody microarray, printed S1C5, cell extract, goat anti-mouse IgM HRP chemiluminescence

lowest IgM concentration giving signal [1]: 0.1 µg/mL
lowest spotted antibody concentration giving signal [1]: 25 µg/mL
highest extract dilution giving signal (fold dilution (1:x)) [2]: 2000
lowest printed antibody concentration giving signal [2]: 50 µg/mL
Substance: S1C5 anti-idiotype monoclonal antibody (anti-IgM antibody)
